Experimental data taken from patent US20200264182A1, “METHOD FOR DETECTING PROSTATE CANCER” (J-OIL MILLS, INC., priority 2017, published 2020).

Tests used:
FAC binding constant = conditions: at 25° C.
Method: (§1) Details of the FAC method are described in Patent Document 2 filed by some of the present applicants, for example.
(§2) Binding constants (at 25° C.) of PhoSL, SRL, NSL and LSL belonging to the fucose α1→6 specific lectin for various sugar chains are shown in Tables 2 to 5.

[1] = FAC binding constant (Table 5 entry); conditions: Table 5: sugar chain having no fucose; at 25° C.
Method: as §1, §2

[2] = Binding to sugar chains, summary of Tables 2 to 5
Method: as §1, §2
The AAL and AOL bind to the fucose α1→6 sugar chains (sugar chains No. 015, 201 to 203, and 401 to 418), as well as to the glycolipid-type sugar chain excluding the fucose α1→6 (sugar chains No. 718, 722, 723, 727, 909, 910 and 933). The LCL and PSL bind to the fucose α1→6 sugar chain, as well as to sugar chain excluding the α1→6 fucose (sugar chains No. 003, and 005 to 014).
Furthermore, the binding constant of the fucose α1→6 specific lectin is not decreased even if a sialic acid is added to the fucose α1→6 sugar chain (sugar chains No. 601 and 602). In addition, the fucose α1→6 specific lectin also strongly binds to the triple-strand (sugar chains No. 407 to 413) and the four-strand (sugar chains No. 418) of the fucose uα1→6 sugar chain.

[3] = sugar chain having fucose other than α1→6 fucose

B1: PSL: Pisum sativum lectin, affinity for fucose α1→6 but not specific (protein, UniProt P02867 31-217; P02867 218-275, looked up)
Lectin beta chain: TETTSFLITKFSPDQQNLIFQGDGYTTKEKLTLTKAVKNTVGRALYSSPIHIWDRETGNVANFVTSFTFVINAPNSYNVADGFTFFIAPVDTKPQTGGGYLGVFNSAEYDKTTQTVAVEFDTFYNAAWDPSNRDRHIGIDVNSIKSVNTKSWKLQNGEEANVVIAFNAATNVLTVSLTYPNSLEEEN
Lectin alpha chain: VTSYTLSDVVSLKDVVPEWVRIGFSATTGAEYAAHEVLSWSFHSELSGTSSSKQAADA
For B1, the “Binding constant for sugar chain No. 728” value (FAC binding constant; Table 3: sugar chain having fucose other than α1→6 fucose) was <1000 M⁻¹, the “Binding constant for sugar chain No. 419” value (FAC binding constant; [3]) was <1000 M⁻¹ and the “Binding constant for sugar chain No. 420” value (FAC binding constant; [3]) was <1000 M⁻¹. The “Binding constant for sugar chain No. 718” value (FAC binding constant; [3]) was <1000 M⁻¹, the “Binding constant for sugar chain No. 719” value (FAC binding constant; [3]) was <1000 M⁻¹ and the “Binding constant for sugar chain No. 720” value (FAC binding constant; [3]) was <1000 M⁻¹. For the same molecule, the “Binding constant for sugar chain No. 721” value (FAC binding constant; [3]) was <1000 M⁻¹, the “Binding constant for sugar chain No. 722” value (FAC binding constant; [3]) was <1000 M⁻¹ and the “Binding constant for sugar chain No. 723” value (FAC binding constant; [3]) was <1000 M⁻¹. For the same molecule, the “Binding constant for sugar chain No. 726” value (FAC binding constant; [3]) was <1000 M⁻¹, the “Binding constant for sugar chain No. 727” value (FAC binding constant; [3]) was <1000 M⁻¹ and the “Binding constant for sugar chain No. 729” value (FAC binding constant; [3]) was <1000 M⁻¹. For the same molecule, the “Binding constant for sugar chain No. 730” value (FAC binding constant; [3]) was <1000 M⁻¹, the “Binding constant for sugar chain No. 731” value (FAC binding constant; [3]) was <1000 M⁻¹ and the “Binding constant for sugar chain No. 739” value (FAC binding constant; [3]) was <1000 M⁻¹. The “Binding constant for sugar chain No. 909” value (FAC binding constant; [3]) was <1000 M⁻¹, the “Binding constant for sugar chain No. 910” value (FAC binding constant; [3]) was <1000 M⁻¹ and the “Binding constant for sugar chain No. 931” value (FAC binding constant; [3]) was <1000 M⁻¹. The “Binding constant for sugar chain No. 932” value (FAC binding constant; [3]) was <1000 M⁻¹, the “Binding constant for sugar chain No. 933” value (FAC binding constant; [3]) was <1000 M⁻¹ and the “Binding constant for sugar chain No. 001” value (FAC binding constant; sugar chain having no fucose) was <1000 M⁻¹. For the same molecule, the “Binding constant for sugar chain No. 002” value (FAC binding constant; sugar chain having no fucose) was <1000 M⁻¹, the “Binding constant for sugar chain No. 003” value (FAC binding constant; sugar chain having no fucose) was 7800 M⁻¹ and the “Binding constant for sugar chain No. 004” value (FAC binding constant; sugar chain having no fucose) was <1000 M⁻¹. For the same molecule, the “Binding constant for sugar chain No. 005” value (FAC binding constant; sugar chain having no fucose) was 7400 M⁻¹, the “Binding constant for sugar chain No. 006” value (FAC binding constant; sugar chain having no fucose) was 7100 M⁻¹ and the “Binding constant for sugar chain No. 007” value (FAC binding constant; sugar chain having no fucose) was 7800 M⁻¹. For the same molecule, the “Binding constant for sugar chain No. 008” value (FAC binding constant; sugar chain having no fucose) was 10000 M⁻¹, the “Binding constant for sugar chain No. 009” value (FAC binding constant; sugar chain having no fucose) was 7900 M⁻¹ and the “Binding constant for sugar chain No. 010” value (FAC binding constant; sugar chain having no fucose) was <1000 M⁻¹. For the same molecule, the “Binding constant for sugar chain No. 011” value (FAC binding constant; sugar chain having no fucose) was <1000 M⁻¹, the “Binding constant for sugar chain No. 012” value (FAC binding constant; sugar chain having no fucose) was 17000 M⁻¹ and the “Binding constant for sugar chain No. 013” value (FAC binding constant; sugar chain having no fucose) was <1000 M⁻¹. For the same molecule, the “Binding constant for sugar chain No. 014” value (FAC binding constant; sugar chain having no fucose) was 8600 M⁻¹, the “Binding constant for sugar chain No. 101” value (FAC binding constant; sugar chain having no fucose) was <1000 M⁻¹ and the “Binding constant for sugar chain No. 103” value (FAC binding constant; sugar chain having no fucose) was <1000 M⁻¹. The “Binding constant for sugar chain No. 104” value (FAC binding constant; sugar chain having no fucose) was <1000 M⁻¹, the “Binding constant for sugar chain No. 105” value (FAC binding constant; sugar chain having no fucose) was <1000 M⁻¹ and the “Binding constant for sugar chain No. 107” value (FAC binding constant; sugar chain having no fucose) was <1000 M⁻¹. The “Binding constant for sugar chain No. 108” value (FAC binding constant; sugar chain having no fucose) was <1000 M⁻¹, the “Binding constant for sugar chain No. 301” value (FAC binding constant; sugar chain having no fucose) was <1000 M⁻¹ and the “Binding constant for sugar chain No. 304” value (FAC binding constant; sugar chain having no fucose) was <1000 M⁻¹. The “Binding constant for sugar chain No. 305” value (FAC binding constant; sugar chain having no fucose) was <1000 M⁻¹, the “Binding constant for sugar chain No. 307” value (FAC binding constant; sugar chain having no fucose) was 2400 M⁻¹ and the “Binding constant for sugar chain No. 308” value (FAC binding constant; sugar chain having no fucose) was <1000 M⁻¹. The “Binding constant for sugar chain No. 313” value (FAC binding constant; sugar chain having no fucose) was <1000 M⁻¹, the “Binding constant for sugar chain No. 314” value (FAC binding constant; sugar chain having no fucose) was <1000 M⁻¹ and the “Binding constant for sugar chain No. 323” value (FAC binding constant; sugar chain having no fucose) was <1000 M⁻¹. The “Binding constant for sugar chain No. 501” value (FAC binding constant; sugar chain having no fucose) was <1000 M⁻¹, the “Binding constant for sugar chain No. 502” value (FAC binding constant; sugar chain having no fucose) was <1000 M⁻¹ and the “Binding constant for sugar chain No. 503” value (FAC binding constant; sugar chain having no fucose) was <1000 M⁻¹. The “Binding constant for sugar chain No. 504” value (FAC binding constant; sugar chain having no fucose) was <1000 M⁻¹, the “Binding constant for sugar chain No. 701” value (FAC binding constant; sugar chain having no fucose) was <1000 M⁻¹ and the “Binding constant for sugar chain No. 702” value (FAC binding constant; sugar chain having no fucose) was <1000 M⁻¹. For the same molecule, the “Binding constant for sugar chain No. 703” value (FAC binding constant; sugar chain having no fucose) was <1000 M⁻¹, the “Binding constant for sugar chain No. 704” value (FAC binding constant; sugar chain having no fucose) was <1000 M⁻¹ and the “Binding constant for sugar chain No. 705” value (FAC binding constant; sugar chain having no fucose) was <1000 M⁻¹. For the same molecule, the “Binding constant for sugar chain No. 706” value (FAC binding constant; sugar chain having no fucose) was <1000 M⁻¹, the “Binding constant for sugar chain No. 707” value (FAC binding constant; sugar chain having no fucose) was <1000 M⁻¹ and the “Binding constant for sugar chain No. 708” value (FAC binding constant; sugar chain having no fucose) was <1000 M⁻¹. For the same molecule, the “Binding constant for sugar chain No. 709” value (FAC binding constant; sugar chain having no fucose) was <1000 M⁻¹, the “Binding constant for sugar chain No. 710” value (FAC binding constant; sugar chain having no fucose) was <1000 M⁻¹ and the “Binding constant for sugar chain No. 711” value (FAC binding constant; sugar chain having no fucose) was <1000 M⁻¹. The “Binding constant for sugar chain No. 712” value (FAC binding constant; sugar chain having no fucose) was <1000 M⁻¹, the “Binding constant for sugar chain No. 713” value (FAC binding constant; sugar chain having no fucose) was <1000 M⁻¹ and the “Binding constant for sugar chain No. 715” value (FAC binding constant; sugar chain having no fucose) was <1000 M⁻¹. For the same molecule, the “Binding constant for sugar chain No. 716” value (FAC binding constant; sugar chain having no fucose) was <1000 M⁻¹, the “Binding constant for sugar chain No. 717” value (FAC binding constant; sugar chain having no fucose) was <1000 M⁻¹ and the “Binding constant for sugar chain No. 724” value (FAC binding constant; sugar chain having no fucose) was <1000 M⁻¹. The “Binding constant for sugar chain No. 725” value (FAC binding constant; sugar chain having no fucose) was <1000 M⁻¹, the “Binding constant for sugar chain No. 732” value (FAC binding constant; sugar chain having no fucose) was <1000 M⁻¹ and the “Binding constant for sugar chain No. 733” value (FAC binding constant; sugar chain having no fucose) was <1000 M⁻¹. The “Binding constant for sugar chain No. 734” value (FAC binding constant; sugar chain having no fucose) was <1000 M⁻¹, the “Binding constant for sugar chain No. 735” value (FAC binding constant; sugar chain having no fucose) was <1000 M⁻¹ and the “Binding constant for sugar chain No. 736” value (FAC binding constant; sugar chain having no fucose) was <1000 M⁻¹. The “Binding constant for sugar chain No. 737” value (FAC binding constant; sugar chain having no fucose) was <1000 M⁻¹, the “Binding constant for sugar chain No. 738” value (FAC binding constant; sugar chain having no fucose) was <1000 M⁻¹ and the “Binding constant for sugar chain No. 901” value (FAC binding constant; sugar chain having no fucose) was <1000 M⁻¹. The “Binding constant for sugar chain No. 902” value (FAC binding constant; sugar chain having no fucose) was <1000 M⁻¹, the “Binding constant for sugar chain No. 903” value (FAC binding constant; sugar chain having no fucose) was <1000 M⁻¹ and the “Binding constant for sugar chain No. 905” value (FAC binding constant; sugar chain having no fucose) was <1000 M⁻¹. For the same molecule, the “Binding constant for sugar chain No. 906” value (FAC binding constant; sugar chain having no fucose) was <1000 M⁻¹, the “Binding constant for sugar chain No. 907” value (FAC binding constant; sugar chain having no fucose) was <1000 M⁻¹ and the “Binding constant for sugar chain No. 015” value (FAC binding constant; sugar chain having α1→6 fucose) was 120000 M⁻¹. For the same molecule, the “Binding constant for sugar chain No. 201” value (FAC binding constant; sugar chain having α1→6 fucose) was 100000 M⁻¹, the “Binding constant for sugar chain No. 202” value (FAC binding constant; sugar chain having α1→6 fucose) was 44000 M⁻¹ and the “Binding constant for sugar chain No. 203” value (FAC binding constant; sugar chain having α1→6 fucose) was 25000 M⁻¹. For the same molecule, the “Binding constant for sugar chain No. 401” value (FAC binding constant; sugar chain having α1→6 fucose) was 92000 M⁻¹, the “Binding constant for sugar chain No. 402” value (FAC binding constant; sugar chain having α1→6 fucose) was 48000 M⁻¹ and the “Binding constant for sugar chain No. 403” value (FAC binding constant; sugar chain having α1→6 fucose) was 38000 M⁻¹. The “Binding constant for sugar chain No. 404” value (FAC binding constant; sugar chain having α1→6 fucose) was 45000 M⁻¹, the “Binding constant for sugar chain No. 405” value (FAC binding constant; sugar chain having α1→6 fucose) was 36000 M⁻¹ and the “Binding constant for sugar chain No. 406” value (FAC binding constant; sugar chain having α1→6 fucose) was 13000 M⁻¹. For the same molecule, the “Binding constant for sugar chain No. 407” value (FAC binding constant; sugar chain having α1→6 fucose) was <1000 M⁻¹, the “Binding constant for sugar chain No. 410” value (FAC binding constant; sugar chain having α1→6 fucose) was <1000 M⁻¹ and the “Binding constant for sugar chain No. 413” value (FAC binding constant; sugar chain having α1→6 fucose) was <1000 M⁻¹. For the same molecule, the “Binding constant for sugar chain No. 418” value (FAC binding constant; sugar chain having α1→6 fucose) was <1000 M⁻¹, the “Binding constant for sugar chain No. 601” value (FAC binding constant; sugar chain having α1→6 fucose) was 31000 M⁻¹ and the “Binding constant for sugar chain No. 602” value (FAC binding constant; sugar chain having α1→6 fucose) was 29000 M⁻¹. The “Binding constant for sugar chain No. 728” value [1] was <1000 M⁻¹, the “binding to sugar chain excluding the α1→6 fucose (in words)” value ([2]; sugar chains No. 003, and 005 to 014 for LCL and PSL) was “bind” and the “binding to the fucose α1→6 sugar chains (in words)” value ([2]; sugar chains No. 015, 201 to 203, and 401 to 418) was “bind”.
